Source: the nanobody polyreactivity screen of Harvey et al. (2022)

assay: yeast display, Sf9 membrane polyspecificity reagent, FACS + sequencing; frameworks hold sequencing errors
How it was run: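 Sorting gates, low and high (top ~1%), were placed on anti-HA fluorescence to track expression and on streptavidin fluorescence to track reagent binding. A clone's polyreactivity label is taken from the gate it came out of. The reagent was 10% biotinylated, detergent-solubilized Sf9 membrane, applied for 1 hour at 4 °C to galactose-induced yeast display cells.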

Sequence	polyreactivity (PSR sort gate)
QVQLVQSGGGLVQAGGSLRLSCAASGGTFQHNTMGWYRQAPGKEWQLVAAIRGSDGSTYYADSVKGRFTISRDNAKNTVYLQMNSLKPEDTAVYYCNRAYTASYIPGVGFWGQGTQVTVSS	high polyreactivity
QVQLVQSGGGLVQAGGSLRLSCAASGITFWGNAMGSYRQAPGKEREFIARINWSGGRTYYAESVKGRFTISRDNEKNNVYLQMNSLKPEDTAVYYCAATSLIYGYRTYDYWGQGTQVTVSS	high polyreactivity
QVQLVQSGGGLVQAGGSLRLSCAASGRIFGSYAMGWSRQAPGKERELGAAISYSGGSTYYADSVKGRFTMSRDNAKNTVYLQMHSLKPEDTAVYYCNVDRYYGYFSVRGGYWGQGTQGTVSS	low polyreactivity
QVQLVQSGGGLVQAGGSLRLSCAASGRIFRPNAMGWYRQAPGKERELVAAISSGGSTYYADSVKGRFTISRDNAKNTVYFQMYSLKPEDTAVDYCAADRSNRPYYRQGYDYWGQGTQVTVSS	high polyreactivity
QVQLVQSGGGLVQAGGSLRLSCAASGRIIGWYAMGWYRQAPGKERELVAAITWSGTSTYYADSVKGRFTISRDNAKNTVYLQMNSLKPEDTAVYYCAADSLPASAPTYYTTLESWGQGTQVTVSS	low polyreactivity
QVQLVQSGGGLVQAGGSLRLSCAASGSTNRYYAMGLYRQAPGKERELVAAITKSGGSTYYADSVKGRFTISRDNAKNTVYLQMNSLKPEDTAVVYCAAVRGWYSPALSEHDYWGQGTQVTVSS	low polyreactivity
QVQLVQSGGGLVQAGGSLRLSCADSGGTFRVYAMGSYRQAPGKERQLVASISWSSGITYYADSVKGRFTISRDNAKNTVYLQMNSLKPEDTAVYYCAAEGHVTYGAPGRLYRMGYWGQGTQVTVSS	low polyreactivity
QVQLVQSGGGLVQAGGSLSLSCAASGSTFARNTMGWYRQAPGKERELVAAISYSGVTTYYADSVKGRFPISRDNEKNTVYLQMNSLKPEDTAVYYCAKLPYRRVDYGYWGQGTQVTVSS	high polyreactivity
QVQLVQSGGGLVQAGGSLSLSCAASGSTFSTYAMGWYRQAPGKERELVATISKSGGSTYYSDSVKGRFTISRDNAKNTVYLQMNSLKPEDTAVYYCNARYQSRYFIYDYWGQGTQVTVSS	high polyreactivity
QVQLVQSGGGLVQAGGTLRLTCAASGSTYAVYAMGWYRQAPGKERELVATIRGRGGSTYYADSVKGRFTISRDYAKNTVYLQMNSLKPEDTAVYYCAADSYPSLGKYDSWGQGTQVTVSS	high polyreactivity
QVQLVQSGGGLVQERGSLRLSCAASGRIFVKYTMGWSRQAPGKERELVAAIDFDTDSTYYADSVTGRFTISRDNAKNTVYLQMYSLKPEDTAVYYCATGYLYFTSYRYNYWGQGTQVTVSS	low polyreactivity
QVQLVQSRGGLVQAGGSLRLSCAASGRTFVYNAMGWYRPAPGKERELVAAIDGGGDRTYYADSVKGRFTISRDNAKNTVYLQMNSLKPEDTAVYYCARDPGDTYYYSYPEGDYWGLGTQVTVSS	low polyreactivity
QVQLVVSGGGLVQAGGSLRLSCAASGRIFVINAMGWYRQAPGNERELVAAITWIGGTTYYADSVKGRFTISRDNAKNTVYLQLNSLKREDTAVYYCARQRSYGRSSYSYGYDYWGQGTQVTVSS	high polyreactivity
QVQLVVSGGGLVQAGGSLRLSCAASGRTFPGNAMGGYRQAPGKERELVASINGRTTRTYYADSVKGRFTISRDNAKNTVYLQMNSLKPEDTAVYYCAADPPGYVYGKRYYWGQGTQVTVSS	high polyreactivity
QVQLVVSGGGLVQAGGSLRLSCAASGRTFYANAMGWYRQAPGKERELVAAISTGGDGTYYADSVKGRFTISRDNAKNTVYLQMNSLKPEDTADYYCAVRHRASGILYDYWGQGTQVTVSS	low polyreactivity
QVQLVVSGGGLVQAGGSLRLSCAASGSIFYFNAMGWYRQAPGKERELVASITSGGSTNYADSVKGRFTISRDNAKTTVYLQLISLKPEDTAVYYFNAYTWGVGSSLDDVGYWGQGTQVTGSS	low polyreactivity
QVQLVVSGGGLVQAGGSLRLSCAASGSMLYKYAMGWYRQPPGKEREFVAAISSSGGITYYADSVKGRFTISRDNAKNTVYLQMNSLKPEDTAVYYCAARTRSQFGHGYWGQGTQVTVSS	high polyreactivity
QVQLVVSGGGLVQAGGSLRLSCAASGSTFQYNAMGWYRQAPGKERELVAAISTGTSTYYADSVKGRFTISRDNAKNTVYLQLNSLKTEVTAVYYCAAEYWGDYTEYNYWGHGTQVTVSS	high polyreactivity
QVQLVVSGGGLVQAGGSLSLSWAASGRIFSSYAMGWYRQAPGKERELDAAIDRTDSTYYADSVKGRFTISRDNAKNTVYLQMNSLIPEDTAVYYCAVLTYRYQSWGNYYLEYDYWGQGTEVTVSS	low polyreactivity
QVQLVVSGGGLVQPGGSLRLSCAASGRTFPYYAMGWYIQAPGKERELVARITGSGTSTNYADSVKGRFTISRDKSKNTVYLKMNSLKPEDTAVYYCAAPKYGSYYIADYEYWGQGTHVTVSS	low polyreactivity
QVQLVYSGGGLVQAGGSLRLSCAASGSLFYHNAMGWYRQAAGKEMELDADISWSGGSTYYADSVKGRFTISRDYAKNTVYLQMNSLKPEDTAVYYGNTDARYDEYDEFDYWGQGTQVTVSS	low polyreactivity
QVQLVYTLGGLDQAGGSLRVSCYASGRTFVYYPMGWYRQAPGKERELVAAITRSGGRTYYADSVKGRFTISRDNAKNTVYLQKYSMKPEETAVYYCAARYCDNPYWFDYWGQGTQVTVSS	high polyreactivity

Sequence	polyreactivity (PSR sort gate)
QVQMQERAAWCRRAGSLRLSCAASGNITDYYFMSWYRQAPGKERELVAAIAPGSNTYYADSVKGRFTISRDNAKNTVYLQMNSLKPEDTAVCFCAANSTQYTWFDYWGQGTQVPVSS	low polyreactivity
QVQPVESGGGLVQAGGSLRLSCAASGLTFYRYAMGWYRQAPGKERELVAAISSGSSTYYADSVKGRFTISRDNSKNTVYLQLNILKPEDTAVYYCAARSIDAHGSRYGYWGQGTQVTVSS	high polyreactivity
QVQQQESGGGLVQAGGSLRLSCAASGTIFQLTVMGRYRQAPGKERELVASIDYGGNTNYADSVKGRFTISRDNAKNTVYLQMNSLKPEDTAVYYCAASSDSWTTHPYWGQGTQGTVSS	low polyreactivity
QVQQQESGGGRCSGRRTTPGLRGERHYFSLLHGLVSPGAGQEREFVAAIAVRSTYYADSAKGRFTINRDNAKYTVYLQMNSLKPEDTSVYSCAAYYSYYGGDYWGQGTQVTVSS	low polyreactivity
QVQREESGGGLVQAGGSLRLSCAASGSTFDGNSMGWYTQAPGKERELVAAIRKSGGRTYYADSVKGRFTISRDNAKNTVYLQMNSLKPDDTAVYYCAAYERGFTYRRYYWGQGTQVTVSS	high polyreactivity
QVQRLESGGGLVQAGGSLRLSCAASGGTIDWNAMGWYRQAPGKETEFVAAITSSGGSTYYADSVKGRFTISRDNAKNSVYLQMTSLKPEDTAVYECAADFWYYQYPYGGGGYWGQGTQVTVSS	low polyreactivity
QVQRVDSGGGLVQAGGSLRLSCDPSGRTHDVNAMGWYRQAPWKERQLVAAISYSGGITYYADSVKGRFTISRDNAKNTVYLQMNSLKPEDTAVYYCAVVGGYPSYTVDYWGQGSQVTVSS	low polyreactivity
QVQRVECGGGLVLAGGSLRLSCAASGRILVFYAMGWYRQARGKVRELVATITDTGRTNYADSVKGRCTISRDNAKKTDSLQMTSQKPEDTAVYYCAKQRDYGFPWATYDYWGQGTQGTVSS	low polyreactivity
QVQRVESAGCLVQAGVSLRLSCPPSRRIFSRYAIGWYRQAPGKERELVAAISWSGGSTYYADSVKGRFTISRDNAMNTVYLQLIILKPEDTAVYYCAARRSYSYGSWGQGTQVTVSS	high polyreactivity
QVQRVESGGGIVQAGGSLRLTCAASGITFVSYTIGWSRQAPGKEREFVAAITWNVASTYYADSVKGRFTISRDNAKNTVYLQMNSLKPEDTAVYYCAAYSRFTSDYWGQGTQVTVSS	high polyreactivity
QVQRVESGGGLGQAGGILLLSCAASGFTFKWYSMGWYRQARGKERELVAGISRRGGTTNYADSFKGRFTISRHNAKNTVNLQINSLKPEDPPVYYCAAESQLTKYYYWGQGTQVTVSS	high polyreactivity
QVQRVESGGGLLQAGGSLSLSCAASGSIFEWYAMGWYRQEPGTERELVAAIRSGGTTNYADSVKGRFTISRDHAKNTVYLQMNSLKPEVTAVYDCAAKSVTGLFRYYYWGQGTQVTVTS	low polyreactivity
QVQRVESGGGLVQAGGILSLSCAASGSIFPWYAMGWYIQAPANERELVAAITISGGSTHYADSVKGRFTISRDNAKNSVYLEMNSLIPEDTAVYYCSTPRYPSYEYWGLGTQVTVSS	low polyreactivity
QVQRVESGGGLVQAGGRLRLSCAASGFTFFHYAMGRYRQAPGKERELVAAISWSGGTTYYADSVKGRFTISRDNAKNTVYLQMNCLKPEDTAVYYFAADGGLGWRWLPLGYRYGFDYWGQGTQVTVSS	low polyreactivity
QVQRVESGGGLVQAGGRLRLSCAASGRTFDNYAMGWYIQAPGKERELVSAISGGGGTNYADSVKGRFTISPDNAKNTVYLQMNSLKPEDTAVYYCAADTNGYEFDYWGQGTQVTVSS	low polyreactivity
QVQRVESGGGLVQAGGRLRLSCAASGSISVAKAMGWYRQAPGKERELVAAITDSGDDTYYADSVKGRFTISRDNAKNTVYLQMNSLKPEDTAVYYCAAGLRLDLGAMYYWGQGTQVTVSS	low polyreactivity
QVQRVESGGGLVQAGGSLRISCAASGSTFITYAMGWYRQERGKERELVAASRWSGGGTYYADSVKGRFTISRDNAKNTVYVQMNSLKPEDTAVYYCAADHFNYTTGRDYWGQGTQVTVSS	low polyreactivity
QVQRVESGGGLVQAGGSLRLRCAASGRTFGYYAMGWYRHAPGKERVLVAAINSRGGSTYYADPVKGRFTISRDNAKNTVYLQMNSLKPEDTAVYYCAKRWCSYGSYSLYDYWGQGTQVTVSS	high polyreactivity
QVQRVESGGGLVQAGGSLRLSCAASGFIFDGYAMGWYRQAPGKERELVAAIDSGGDRTYYADSVKGRFTISRDNAKNTVYLLMNSLKPEDTAVYYCAADSSDPTGYEYGGQGTQVTVSS	low polyreactivity
QVQRVESGGGLVQAGGSLRLSCAASGFIFTSNARGWYRPAPGKERELVAASTKSGGSTYYADSVKGRFTISRDNAKNTVYLQMNSLKPEDTAVYYCAAYPTSRYKYEYWGQGTQVTVSS	high polyreactivity
QVQRVESGGGLVQAGGSLRLSCAASGFIITRYSMGWYRQAPGKEREMVAVINSSGGSTYYADSVKGRFTISRDTAKNTVYVQMNSLKPEDTAVYYCNALSRYRIWSYGYWGQGTQVTVSS	high polyreactivity
